Laboratory results as given in the DeepSol protein solubility set.

Experiment: soluble on expression in E. coli; label from the status in PepcDB or PDB records

| Sequence | soluble on expression in E. coli |
| --- | --- |
| MGSGGVVHCRCAKCFCYPTKRRIRRRPRNLTILSLPEDVLFHILKWLSVEDILAVRAVHSQLKDLVDNHASVWACASFQELWPSPGNLKLFERAAEKGNFEAAVKLGIAYLYNEGLSVSDEARAEVNGLKASRFFSLAERLNVGAAPFIWLFIRPPWSVSGSCCKAVVHESLRAECQLQRTHKASILHCLGRVLSLFEDEEKQQQAHDLFEEAAHQGCLTSSYLLWESDRRTDVSDPGRCLHSFRKLRDYAAKGCWEAQLSLAKACANANQLGLEVRASSEIVCQLFQASQAVSKQQVFSVQKGLNDTMRYILIDWLVEVATMKDFTSLCLHLTVECVDRYLRRRLVPRYRLQLLGIACMVICTRFISKEILTIREAVWLTDNTYKYEDLVRMMGEIVSALEGKIRVPTVVDYKEVLLTLVPVELRTQHLCSFLCELSLLHTSLSAYAPARLAAAALLLARLTHGQTQPWTTQLWDLTGFSYEDLIPCVLSLHKKCFHDDAPKDYRQVSLTAVKQRFEDKRYGEISQEEVLSYSQLCAALGVTQDSPDPPTFLSTGEIHAFLSSPSGRRTKRKRENSLQEDRGSFVTTPTAELSSQEETLLGSFLDWSLDCCSGYEGDQESEGEKEGDVTAPSGILDVTVVYLNPEQHCCQESSDEEACPEDKGPQDPQALALDTQIPATPGPKPLVRTSREPGKDVTTSGYSSVSTASPTSSVDGGLGALPQPTSVLSLDSDSHTQPCHHQARKSCLQCRPPSPPESSVPQQQVKRINLCIHSEEEDMNLGLVRL | soluble |
| MGSHHHHHHRTPSDKPVAHVVANPQAEGQLQWLNRRANALLANGVELRDNQLVVPSEGLYLIYSQVLFKGQGCPSTHVLLTHTISRIAVSYQTKVNLLSAIKSPCQRETPEGAEAKPWYEPIYLGGVFQLEKGDRLSAEINRPDYLLFAESGQVYFGIIAL | soluble |
| MGSKAKKRVLLPTRPAPPTVEQILEDVRGAPAEDPVFTILAPEDPPVPFRMMEDAEAPGEQLYQQSRAYVAANQRLQQAGNVLRQRCELLQRAGEDLEREVAQMKQAALPAAEAASSG | soluble |
| MGSLGFLAGGVMPLEQLKQELSEVKGVFGVNLFRPQTDAPKPSDIDELAGLLSSAFRQFGLDEPTVPTPDLSNGWEAKFEAVLAAKPAVFSCTFGIFSAEEFARIKATGIEAWVTVTNPEDALAAQKAGANALVVQGPEAGGHRSTWSIEVEPDERDLKTLLAAVKQAGVYLPLIAAGGLSTSADVAAILEAGASAASCGSAFLLSDEAGTSSLNREILDAAPALGLESVSSRAFSGRYARGVETRFTRSNEGLPPLYPYLNPMITSLRKVAGSAGNWDYAYCLVGVGLESIAKGSAKQILESLTPSALEHHHHHH | not soluble |
| MGSLYTSELSRAVSESVAAALQRSFQGELRSASALGSGWSTSAELLNRNDSTERYFVKLSEPQAVSMFSAEFEGIQAMAESETVRVPAPICYGNTAERSFIVLEYLELGGIGNEAVYRDFGEKLAAMHRCSSGGRGYGWHRGNTIGSTPQLNTWMHSWADFFVENRLRYQLKLARSRQGGRLRNEDALLQRVHSVLQEHEIQHQVTPSLVHGDLWTGNVATLRNQNEVVIFDPATYYGDREVDLAMTELFGRLPRAFYQAYDASWPLPKGYREKRRVIYNLYHILNHGALFGGGYYDQAQSMIETILR | soluble |
| MGSPLPFRLTCVWAGEPSMKKAIIFDCEFLCLEGSQRRFWCAAHDPDPVIAQIGAVKLGLEGGFPLLETYKVLISPVDRHGRRYAIDPFFTRLTGITEENIEAEGVPLQDALSSFDSFSEGAQCWSWGKDELNMMAISTYVAGIQPPMPACRFDNAVRLLLAAGMPVEDLAKTPSNSLADYYGVAHPPLQGHDALGDALSVSYALQHLLRSGKLKPEEFTLAAAAALEHHHHHH | not soluble |
| MGSPTAEELTGCLFFSPDDGRIWLNDQRMLLLHSSSFGTLRREIIERLGQEPARGMFTRAGYLSGARDARLIRERWPLADATSAFRAGTHLHTLEGMAKVESLHFKFDAESGFYEGEFLWHNSCEADEHLAACGTGQDPVCWTEIGYAIGFVSGLFGQMVIFREVECRGMGHASCRVIGKTAEQWGDVERDLSYLSVAKTVAPAHTPALANAHYDAGPPTGTDQPLIGASAAFNAATQALQRVAMTPATVLISGESGVGKEMFARQLHQLSRNREGPFVALNCAAIPDNLIEAELFGVERGAYTGATHSRPGRFERANGGTLFLDEITSLSLAGQSKLLRALQEREIERVGGGHGIKVNVRVVAATNVDLRKAVAEGDFREDLFYRLNVYPIALPPLRERRDDIPLLINAFLQRFCHEYGRTPAGLTMRALKTLLRYDFAGNVRELQNLIERGLIASDEGQAIDLVHIFRNESLPVDSYSLNHDGALSKAAPPIAHTAQGAALLDTLSQEKQAFSIEELEQQLIREALEKSAGNLAAASRLLGLSRAQFA | not soluble |
| MGSQAIEAHREGAEVYHGAALCAEKAVELLAEIHMPLGLLPLAEMEEVGYNRATGFVWLRQKKAITHTFKQISRQVSFAAEVTAFVEDRRMKRVTGAKTKELLIWVSLSDMFIDKDDASKITFKTPTGLGRTYPVDAFAKEDDGKGKVPAAAAAANGKETAVNGKAK | soluble |
| MGSRIMHVIIANGIAEKLSIHDKTSFLLGAVAPDAVHSKKEKGTSHFYAGTTKNYTRRIDYDSFFHKYESHINSPFILGYYTHLIADDNWLSGFFLPWLKNRIENDETIAPLYYNDFKLLNAKLLHHYDQEQQLFSLLNQEAHIVDIEEVSKENVLAFRKYLFEDMLYPKQYLHEDLQVFTFDQIVGYIETAIEKGVFFIKQLSNEKSTSKI | not soluble |
| MGSSESIVKLNVGGTVFVTLKSTLTKHHGIFKALVKTEMPAEDGDSFFIDRSPKHFETVLNYIRSGDVDLPDSENELKELKREAEYYSLEKLATLCQSSMPKIKSYKTADELLNMIANTKKVVVVIHYLAYKNQLHTIPLGFKFSEFVERNKDKAEVFIYEIKDEEELKDKPYVDDPNRVWSFCIFNSEWSENYPLKSLRDIQVQLDCFGDF | not soluble |
| MGSSHHHHHHGSSNILIINGAKKFAHSNGQLNDTLTEVADGTLRDLGHDVRIVRADSDYDVKAEVQNFLWADVVIWQMPGWWMGAPWTVKKYIDDVFTEGHGTLYASDGRTRKDPSKKYGSGGLVQGKKYMLSLTWNAPMEAFTEKDQFFHGVGVDGVYLPFHKANQFLGMEPLPTFIANDVIKMPDVPRYTEEYRKHLVEIFG | soluble |
| MGSSHHHHHHMDRYEIKGVDVASYQGDIDWRELEKQNMKFAFIKATEGSAFVDKYFSKNWTNANKTSMRVGAYHFFSFDSKGETQAEQFIRNVPKYKQALPPVIDVEFYANKKDNPPKREDVTKELSVMIEMLEKHYGKKVILYATQEAYDLYIKDAYPQCDIWIRSVLTKPSLSDERKWTFWQYTNRGKLSGYNGKEKYIDLNVFYGNEEEFENYGMKD | soluble |
| MGSSHHHHHHSSGLVPRGSHMDKGKSVKSTEKSVGMPPKTPKTDNNAHVDNEFLILQVNDAVFPIGSYTHSFGLETYIQQKKVTNKESALEYLKANLSSQFLYTEMLSLKLTYESALQQDLKKILGVEEVIMLSTSPMELRLANQKLGNRFIKTLQAMNELDMGEFFNAYAQKTKDPTHATSYGVFAASLGIELKKALRHYLYAQTSNMVINCVKSVPLSQNDGQKILLSLQSPFNQLIEKTLELDESHLCTASVQNDIKAMQHESLYSRLYMS | soluble |
| MGSSHHHHHHSSGLVPRGSHMHMQVTLQVTPPCTQERHYEHLGRCCSRCEPGKYLSSKCTPTSDSVCLPCGPDEYLDTWNEEDKCLLHKVCDAGKALVAVDPGNHTAPRRCACTAGYHWNSDCECCRRNTECAPGFGAQHPLQLNKDTVCTPCLLGFFSDVFSSTDKCKPWTNCTLLGKLEAHQGTTESDVVCSSSMTLRRPPKEAQALEHHHHHH | soluble |
| MGSSHHHHHHSSGLVPRGSHMKAIALISGGKDSFLSAYIAMQQGFDIVRAMIVRPQEYSYMFHFPNVDKAGYVAGMLGIEPEFVLEDGFQQRVKEYASDGVKAIVSGAIASEFQKTRLERIATEFSIISYTPLWKVDQHRVMRDILDAGIRAMIVSVSAEGFSENDLGREIDDKYLERLYHLEKRYGINITGEGGEYETFVFGFGNKYISVKGHRIWKGSGGYFNIDSVEERPDSC | soluble |
| MGSSHHHHHHSSGLVPRGSHMQKPIKKDPNRYHGEKMTEFSEWFHNILEEAEIIDQRYPVKGMHVWMPHGFMIRKNTLKILRRILDRDHEEVLFPLLVPEDELAKEAIHVKGFEDEVYWVTHGGLSKLQRKLALRPTSETVMYPMFALWVRSHTDLPMRFYQVVNTFRYETKHTRPLIRVREITTFKEAHTIHATASEAEEQVERAVEIYKEFFNSLGIPYLITRRPPWDKFPGSEYTVAFDTLMPDGKTLQIGTVHNLGQTFARTFEIKFETPEGDHEYVHQTCYGLSDRVIASVIAIHGDESGLCLPPDVAAHQVVIVPIIFKKAAEEVMEACRELRSRLEAAGFRVHLDDRDIRAGRKYYEWEMRGVPLRVEIGPRDLEKGAAVISRRDTGEKVTADLQGIEETLRELMKDILENLRTRAWERMESEIREAETLEEASRIVDEKRGIISFMWCGEEECGMDVEEKVRVDILGIQEEGSGTCINCGREAPYRAYLARTY | soluble |
| MGSSHHHHHHSSGLVPRGSHMRIAIVVPYLAKVEGNKIALILASKLAKNNEVFVVSYAVKDSIIDEVNSLISPAKFFYQKAISNGRYGIRFAIKYQLLKGVDRKMANLLKALMPLDIYLVISNEGHWIPIYFDKAYGTKSALVVMELHDHGFISAGNDPLRFPILRTVLASPAYGLAKVIEYKRFKSFDILFANSKWTQIVFQYLYGLPVSGILFGIDTEVFKPTPSKFSEMNFIAVPTISLKKDYYGRRLISKLAKDGIPLLSYGPIKIEGVKHLGYLSQDEMVKILSAAKATLFLFNYEALGLIPFESLACGTPVITYPKQGPLVELSDNPNVIYFREYEELLKNCRLHLNSAKDEMTINKCRESVLKYDISKVSVDVEQLFQTIIFNKNKS | soluble |
| MGSSHHHHHHSSGLVPRGSHMTVEQTPENPGTAARAAAEETVNDILQGAWKARAIHVAVELGVPELLQEGPRTATALAEATGAHEQTLRRLLRLLATVGVFDDLGHDDLFAQNALSAVLLPDPASPVATDARFQAAPWHWRAWEQLTHSVRTGEASFDVANGTSFWQLTHEDPKARELFNRAMGSVSLTEAGQVAAAYDFSGAATAVDIGGGRGSLMAAVLDAFPGLRGTLLERPPVAEEARELLTGRGLADRCEILPGDFFETIPDGADVYLIKHVLHDWDDDDVVRILRRIATAMKPDSRLLVIDNLIDERPAASTLFVDLLLLVLVGGAERSESEFAALLEKSGLRVERSLPCGAGPVRIVEIRRA | soluble |
| MGSSHHHHHHSSGLVPRGSHMYHHYHAFQGRKLTDQERARVLEFQDSIHYSPRYSDDNYEYRHVMLPKAMLKVIPSDYFNSEVGTLRILTEDEWRGLGITQSLGWEHYECHAPEPHILLFKRPLNYEAELRAATAAAQQQQQQQQQQQQQQQQHQTQSISNDMQVPPQIS | soluble |
